Data taken from patent US20250206828A1, “ANTI-ADENOSINE RECEPTOR (A2aR) ANTIBODIES AND THE USE THEREOF” (Adept Therapeutics Inc., priority 2022, published 2025).
Substitutions are numbered along the chain they refer to.

How the values were obtained:
[1] = target: T1, human A2aR on the cell surface of human PBMCs (Homo sapiens, UniProt P29274); assay: Binding of anti-A2aR antibodies to human PBMC subsets (CD4 T, CD8 T, NK, NKT cells; FACS); settings: for binding to human T cells (CD4, CD8), NK cells and NKT cells: human PBMCs, FACS
T1 construct: host or cells: human PBMCs (CD4 T, CD8 T, NK, NKT subsets)
T1 sequence (P29274 whole entry): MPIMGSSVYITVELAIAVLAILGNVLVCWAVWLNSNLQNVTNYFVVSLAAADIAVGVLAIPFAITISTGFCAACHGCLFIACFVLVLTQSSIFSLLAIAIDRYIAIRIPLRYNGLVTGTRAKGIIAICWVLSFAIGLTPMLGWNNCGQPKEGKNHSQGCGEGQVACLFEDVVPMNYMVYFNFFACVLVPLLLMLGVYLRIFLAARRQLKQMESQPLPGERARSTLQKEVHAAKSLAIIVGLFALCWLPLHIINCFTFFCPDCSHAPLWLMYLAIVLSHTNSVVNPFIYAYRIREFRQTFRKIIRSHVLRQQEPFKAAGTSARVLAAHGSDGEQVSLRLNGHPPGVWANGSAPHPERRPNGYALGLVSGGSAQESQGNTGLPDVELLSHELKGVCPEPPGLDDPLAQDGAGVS
Protocol: Human and cynomolgus PBMCs were purchased from Cytologics LLC (San Diego, CA) and iQ Biosciences (Berkeley, CA), respectively. 10^6 human and/or cynomolgus PBMCs in 100 μl FACS buffer (1×DPBS, 2% FBS) were incubated with anti-A2aR antibodies at 4° C. for 30 minutes. After wash, samples were stained with PE-conjugated goat-anti-human Fc antibody (1:400, Jackson ImmunoResearch Labs, Cat. 109-116-098) and other surface markers using cynomolgus cross-reactive APC/cy7-anti-CD3 (BD Bioscience, Cat. 557757), BV421-anti-CD4 (Biolegend, Cat. 317433), BV650-anti-CD8 (Biolegend, Cat. 301042) and BV711-anti-CD56 (BD Bioscience, Cat. 742661) for 30 minutes, and Zombie Green fixable Viability dye (Biolegend, Cat. 423111) were used according to manufacturer's instruction to define live immune cell subsets. After wash with FACS buffer, cells were analyzed on FACSAria (BD). Data was analyzed using Flowjo (Becton Dickinson).

[2] = target: human A2aR-expressing HEK293 cells (Homo sapiens, UniProt P29274); assay: Flow cytometry based internalization assay; assay type: cell-based; settings: 1, 0.5 and 0.25 μg/ml, 1, 2 and 4 hours at 37° C.
Sequence of human A2aR-expressing HEK293 cells (P29274 whole entry): as above
Protocol: 2×10^5/well freshly cultured human A2aR-expressing HEK293 cells (BPS Bioscience) were incubated with antibodies to be tested at indicated concentration (1, 0.5 and 0.25 μg/ml) on ice for 45 minutes. Parental 3F6 were used as positive control. After wash with FACS buffer, samples were split into 4 sets. One set of samples were maintained on ice. The other three sets of samples were left in 37° C., 5% CO2 incubator for further incubation for 1, 2 and 4 hours. All four sets of samples were followed by staining with PE-conjugated goat-anti-human Fc antibody (1:400, Jackson Immuno Research, Cat. 109-116-098) for 30 minutes, and then washed with cold FACS buffer, cells were then stained with 1:100 diluted 7−AAD (Biolegend) and then fixed with 2% of paraformaldehyde (diluted from 10% paraformaldehyde (MilliporeSigma, Cat. R04586)). All samples were analyzed on Guava 11HT or 5HT (Luminex). The mean fluorescence intensity (MFI) was obtained and data was analyzed using Flowjo software. Internalization rate was calculated as: […]

[3] = tested on: human PBMCs (CD4 T, CD8 T, NK cells); assay: Restoration of IFN-γ and IL-2 production of NECA-suppressed T cells and NK cells (intracellular cytokine staining); assay type: cell-based; settings: for % of cells IFNγ+, CD4 T cells / % of cells IFNγ+, CD8 T cells / % of cells IFNγ+, NK cells / % of cells IL-2+, CD4 T cells / % of cells IL-2+, CD8 T cells: NECA, test substance 1 μg/ml; for restored production of IFN-γ and IL-2 by NECA-suppressed CD8 T cell: compared with AB928, CPI-444 and AZD4635; for restored production of IFN-γ and IL-2 by NECA-suppressed NK cells: compared with the tested small molecule inhibitors
Protocol: Two hundred thousand (2×10^5) human peripheral blood mononuclear cells (PBMCs) human PBMC in complete IMDM medium were aliquoted into each well in a 96-well plate and the cells in the 96-well plate were pre-incubated with antibodies or small molecule inhibitors at indicated concentration for 90 minutes, followed by addition of T cell activator anti-CD3/28 dynabeads (Gibco, Cat #11132D) at ratio of 1:4 (Beads: PBMC, v/v) and NECA (DiscoverX, Cat #92-1191, final concentration […]). Cells were cultured in an incubator at 37° C., 5% CO2 for 24 hours. Cells were then collected and stimulated with anti-CD3/28 dynabeads in the presence of GolgiPlug™ Protein Transport Inhibitor (BD Biosciences, Cat #555028) according to manufacturer's manual for 4 hours. Thereafter, cells were incubated with human TruStain FcX block (Biolegend, Cat #422302) and True-Stain monocyte blocker (Biolegend, Cat #426103) for 15 minutes according the manufacturer's manual, and cells were then stained with surface markers PE-anti-CD4 (Biolegend, Cat #300550), PerCP-cy5.5-anti-CD8 (Biolegend, Cat #301032), APC/cy7-anti-CD3 (Biolegend, Cat #300426) and PE/cy7-anti-CD56 (Biolegend, Cat #362509), PE/cy7-anti-CD56 (Biolegend, Cat #362509), BV711-anti-CD25 (Biolegend, Cat #302636) and BV605-anti-CD69 (Biolegend, Cat #31938 After wash with FACS buffer, cells were stained with BV421-anti-IFN-γ (BD Bioscience, Cat #562988) and APC anti-IL-2 (BD Bioscience, cat #551383) using intracellular cytokine staining kit (BD Biosciences, cat #555028) following manufacturer's instruction. Stained samples were analyzed on FACSAria III machine. Data were analyzed using Flowjo software.

B1: Hu3F6-H3/Hu3F6-L5: humanized anti-A2aR IgG1 FES antibody; HCVR SEQ ID NO:60, LCVR SEQ ID NO:80 (antibody, V domains shown)
VH: EVQLVQSGAEVKKPGASVKVSCKTSGFAFTSYWMNWVRQAPGQGLEWIGRIDPSDSEAHYHHKFWGRATLTVDTSSSTVYMELSSLRSEDTAVYYCLRSLYGKGDYWGHGTTVTVSS
VL: DVVMTQTPLSLSVTPGQPASISCRSSQSLVHRNGNTYLEWYLQKPGQSPQLLIYKVSNRFSGVPDRFSGSGSGTDFTLKISRVEAEDVGVYYCYQGSHVPLTFGGGTKVEIK
% of A2aR+ CD4+ T cells ([1]; human 1 PBMC): 0.43% | % of A2aR+ CD8+ T cells ([1]; human 1 PBMC): 0.04% | % of A2aR+ NK cells ([1]; human 1 PBMC): 0.69% | % of A2aR+ NKT cells ([1]; human 1 PBMC): 0.46% | % of A2aR+ CD4+ T cells ([1]; human 2 PBMC): 0.44% | % of A2aR+ CD8+ T cells ([1]; human 2 PBMC): 0.04% | % of A2aR+ NK cells ([1]; human 2 PBMC): 0.75% | % of A2aR+ NKT cells ([1]; human 2 PBMC): 0.55% | binding to human T cells (CD4, CD8), NK cells and NKT cells [1]: bound to various human and cynomolgus CD4+ and CD8+ T cells | internalization upon binding to cell surface A2aR (percentage of internalization, FIG. 2) [2]: induce internalization upon binding to cell surface A2aR | % of cells IFNγ+, CD4 T cells [3]: 4.35% | % of cells IFNγ+, CD8 T cells [3]: 14.1% | % of cells IFNγ+, NK cells [3]: 17.8% | % of cells IL-2+, CD4 T cells [3]: 13.4% | % of cells IL-2+, CD8 T cells [3]: 3.29% | restored production of IFN-γ and IL-2 by NECA-suppressed CD8 T cell [3]: restored production of IFN-γ and IL-2 by NECA-suppressed CD8 T cell, with higher potency | restored production of IFN-γ and IL-2 by NECA-suppressed NK cells [3]: restored production of IFN-γ and IL-2 by NECA-suppressed NK cells, with a potency higher

B2: Hu3F6-H5/Hu3F6-L5: humanized anti-A2aR IgG1 FES antibody; HCVR SEQ ID NO:62, LCVR SEQ ID NO:80 (antibody, V domains shown)
VH: B1 VH with H61A, T74K
VL: B1 VL
% of A2aR+ CD8+ T cells ([1]; human 1 PBMC): 0.05% | % of A2aR+ NK cells ([1]; human 1 PBMC): 0.66% | % of A2aR+ NKT cells ([1]; human 1 PBMC): 0.42% | % of A2aR+ CD8+ T cells ([1]; human 2 PBMC): 0.03% | % of A2aR+ NK cells ([1]; human 2 PBMC): 0.62% | % of A2aR+ NKT cells ([1]; human 2 PBMC): 0.48% | binding to human T cells (CD4, CD8), NK cells and NKT cells [1]: bound to various human and cynomolgus CD4+ and CD8+ T cells | internalization upon binding to cell surface A2aR (percentage of internalization, FIG. 2) [2]: induce internalization upon binding to cell surface A2aR | % of cells IFNγ+, CD4 T cells [3]: 4.29% | % of cells IFNγ+, CD8 T cells [3]: 14.8% | % of cells IFNγ+, NK cells [3]: 16.6% | % of cells IL-2+, CD4 T cells [3]: 13.2% | % of cells IL-2+, CD8 T cells [3]: 2.98% | restored production of IFN-γ and IL-2 by NECA-suppressed CD8 T cell [3]: restored production of IFN-γ and IL-2 by NECA-suppressed CD8 T cell, with higher potency | restored production of IFN-γ and IL-2 by NECA-suppressed NK cells [3]: restored production of IFN-γ and IL-2 by NECA-suppressed NK cells, with a potency higher
